Where no end group is shown, it is not given here. Fluorescein = N-terminal fluorescein label
Target: T1, GST (UniProt P08515 1-218 = GST)
T1 construct: Control protein; also called control GST
Assay: fluorescence anisotropy

T1 sequence (P08515 whole entry): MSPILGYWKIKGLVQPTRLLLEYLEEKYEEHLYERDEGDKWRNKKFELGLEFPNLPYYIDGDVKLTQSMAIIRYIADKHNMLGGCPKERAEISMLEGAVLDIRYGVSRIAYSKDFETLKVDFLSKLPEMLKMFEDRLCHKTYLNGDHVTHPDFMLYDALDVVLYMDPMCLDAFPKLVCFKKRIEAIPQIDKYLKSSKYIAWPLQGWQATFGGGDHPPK

B1: EQPLTPVTDL (peptide)
peptide: Fluorescein-EQPLTPVTDL
notes: also called nonphosphorylated Cdc25 Peptide
binding result: no binding

Source: US20050282740A1 (BETH ISRAEL DEACONESS MEDICAL CENTER, published 2005)
